Source: patent US6602700B1, “Phenolic acid esterases, coding sequences and methods” (University of Georgia Research Foundation, Inc., priority 1998, dated 2003)

Columns and labels:
[1] = Storage stability of purified XynZ-derived FAE at 4° C.; assay type: physicochemical; conditions: 4° C. in elution buffer (50 mM Tris pH 7.5, 5% glycerol)
Procedure: Alternatively, the 100,000×g supernatant after the heat treatment was concentrated to a volume of 2 ml with a Centricon 10 concentrator (Amicon, Millipore, Bedford, Mass.) and then applied to a TSK3000SW column (Tosohaas) which was run with 50 mM Tris pH 7.5 and 5% glycerol as solvent.

[2] = C. thermocellum enzyme stability experiments (heat incubation, residual activity); assay type: physicochemical
Procedure: Purified enzyme at a concentration of 13 μg/nMl was placed in a water bath at the appropriate temperature and incubated at intervals of one hour. Enzyme aliquots (25 μl) were removed and assays were performed in triplicate using FAX3 as a substrate as described above. FAE/CBD was tested at temperatures of 500, 600, and 70° C. while FAE was tested at 70°, 80° and 90° C.

[3] = Feruloyl esterase activity of C. thermocellum enzymes, HPLC assay, FAX3 as substrate; assay type: biochemical; conditions: pH 6.0, 60° C.
Procedure: (§1) Unless otherwise noted, all C. thermocellum enzyme assays were performed at 60° C. in 50 mM Na-citrate buffer, pH 6.0. One unit of enzyme activity was defined as the amount of enzyme that released 1 μmol of product min-1, and specific activity is given in units per milligram of protein. Feruloyl esterase activity was measured using a modified version of the assay described by Borneman et al. [Borneman etal. (1990) Anal. Biochem. 190:129-133]. The appropriately diluted protein sample (25 l) was added to 400 μl of buffer plus 8 mM of substrate. Samples were incubated at 60° C. for 5 min. and the reaction was stopped by adding 25 μl of 20% formic acid. Release of ferulic acid was measured via HPLC using a mobile phase of 10 mM Na-formate pH 3 and 30% (vol/vol) methanol. For routine assays, FAXX and FAX3 purified from wheat bran were used as substrates [Borneman et al. (1990) supra]. Ethyl-ferulate and ethyl-p-coumarate esters were a gift from D. E. Akin (USDA, Athens, Ga.). The hydrolysis of these (10 mM) were determined similarly to that of FAXX, but the HPLC analyses were performed with 50% methanol. HPLC runs were with a Hewlett Packard 1100 Series instrument equipped with an autosampler and diode array detector. Ferulic acid and p-coumaric acid were used as standards. […]

[4] = Cellulose binding of XynZ constructs; conditions: purified from recombinant E. coli
[5] = Routine feruloyl esterase assay of purified recombinant XynZ polypeptides (purification tables); assay type: biochemical; conditions: purified preparation after heat treatment and TSK 3000SW gel filtration
Procedure: as §1

[6] = Feruloyl esterase activity of C. thermocellum enzymes, HPLC assay, FAXX as substrate; assay type: biochemical; conditions: E. coli cell free extracts
Procedure: Unless otherwise noted, all C. thermocellum enzyme assays were performed at 60° C. in 50 mM Na-citrate buffer, pH 6.0. One unit of enzyme activity was defined as the amount of enzyme that released 1 μmol of product min-1, and specific activity is given in units per milligram of protein. Feruloyl esterase activity was measured using a modified version of the assay described by Borneman et al. [Borneman etal. (1990) Anal. Biochem. 190:129-133]. The appropriately diluted protein sample (25 l) was added to 400 μl of buffer plus 8 mM of substrate. Samples were incubated at 60° C. for 5 min. and the reaction was stopped by adding 25 μl of 20% formic acid. Release of ferulic acid was measured via HPLC using a mobile phase of 10 mM Na-formate pH 3 and 30% (vol/vol) methanol. For routine assays, FAXX and FAX3 purified from wheat bran were used as substrates [Borneman et al. (1990) supra]. Ethyl-ferulate and ethyl-p-coumarate esters were a gift from D. E. Akin (USDA, Athens, Ga.). The hydrolysis of these (10 mM) were determined similarly to that of FAXX, but the HPLC analyses were performed with 50% methanol. HPLC runs were with a Hewlett Packard 1100 Series instrument equipped with an autosampler and diode array detector. Ferulic acid and p-coumaric acid were used as standards. To determine the amount of feruloyl and p-coumaroyl groups released from plant cell walls, wheat bran and Coastal Bermuda grass were ground in a Wiley mill to pass through a 250 μm screen. Plant samples of ten milligram were incubated for one hour in 400 μl of 50 mM Na-citrate buffer pH, 6.0 plus 25 μl of enzyme. After the addition of 25 μl of 20% formic acid to stop the reaction, the samples were centrifuged at 16,000×g in a microfuge and then assayed for FA and pCA by HPLC.

Molecule	Storage stability [1]	Relative activity after heat incubation ([2]; 80° C., after three hours of incubation)	Relative activity after heat incubation ([2]; 90° C., after 1 hour of incubation)	Thermal stability ([2]; temperatures up to 70° C. for 6 hours)	Km [3]	Vmax [3]	Removal of feruloyl esterase activity by Avicel and acid swollen cellulose adsorption (cellulose binding) [4]	Specific Activity [5]	Feruloyl esterase activity (hydrolysis of FAXX) of construct expressed in E. coli [6]	Feruloyl esterase activity (hydrolysis of FAXX) of construct expressed in E. coli ([6]; listed as XynZ UD)
FAE: C. thermocellum XynZ amino acids 20-286 expressed in E. coli; feruloyl esterase domain without linker or CBD (protein, listed as Clostridium thermocellum) LVTISSTSAASLPTMPPSGYDQVRNGVPRGQVVNISYFSTATNSTRPARVYLPPGYSKDKKYSVLYLLHGIGGSENDWFEGGGRANVIADNLIAEGKIKPLIIVTPNTNAAGPGIADGYENFTKDLLNSLIPYIESNYSVYTDREHRAIAGLSMGGGQSFNIGLTNLDKFAYIGPISAAPNTYPNERLFPDGGKAAREKLKLLFIACGTNDSLIGFGQRVHEYCVANNINHVYWLIQGGGHDFNVWKPGLWNFLQMADEAGLTRDGN	stable for at least a month	around 50%	most of the relative activity was destroyed	stable	10.5 mM	28.2 μmol ferulic acid released min-1 mg-1	not	26.6 U/mg	exhibited feruloyl esterase activity	high levels of feruloyl esterase activity
FAE287: XynZ amino acids 20-307; lacks the CBD but contains the proline rich linker (protein, listed as Clostridium thermocellum) LVTISSTSAASLPTMPPSGYDQVRNGVPRGQVVNISYFSTATNSTRPARVYLPPGYSKDKKYSVLYLLHGIGGSENDWFEGGGRANVIADNLIAEGKIKPLIIVTPNTNAAGPGIADGYENFTKDLLNSLIPYIESNYSVYTDREHRAIAGLSMGGGQSFNIGLTNLDKFAYIGPISAAPNTYPNERLFPDGGKAAREKLKLLFIACGTNDSLIGFGQRVHEYCVANNINHVYWLIQGGGHDFNVWKPGLWNFLQMADEAGLTRDGNTPVPTPSPKPANTRIEAEDYD									exhibited feruloyl esterase activity	
FAE227: XynZ amino acids 20-247; expressed but inactive truncation (protein, listed as Clostridium thermocellum) LVTISSTSAASLPTMPPSGYDQVRNGVPRGQVVNISYFSTATNSTRPARVYLPPGYSKDKKYSVLYLLHGIGGSENDWFEGGGRANVIADNLIAEGKIKPLIIVTPNTNAAGPGIADGYENFTKDLLNSLIPYIESNYSVYTDREHRAIAGLSMGGGQSFNIGLTNLDKFAYIGPISAAPNTYPNERLFPDGGKAAREKLKLLFIACGTNDSLIGFGQRVHEYCVANN									inactive	
